Source: EP2017284A1 (INSTITUT PASTEUR, dated 2009)

Target: T1, GST-E2 fusion protein (HPV18 E2) (HPV18, UniProt P06790 1-365)
T1 sequence: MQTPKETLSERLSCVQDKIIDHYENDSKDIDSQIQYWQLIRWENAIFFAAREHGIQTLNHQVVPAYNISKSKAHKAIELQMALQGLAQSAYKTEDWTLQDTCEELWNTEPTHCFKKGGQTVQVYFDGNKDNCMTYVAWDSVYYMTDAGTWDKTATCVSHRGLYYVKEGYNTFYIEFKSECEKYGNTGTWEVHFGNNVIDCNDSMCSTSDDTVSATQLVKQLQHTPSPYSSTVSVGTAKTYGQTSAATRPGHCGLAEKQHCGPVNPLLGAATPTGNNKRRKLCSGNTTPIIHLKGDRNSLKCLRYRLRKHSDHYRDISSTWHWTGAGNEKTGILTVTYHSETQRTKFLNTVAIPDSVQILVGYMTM
Test: GST pull-down of 35S in vitro translated protein, autoradiography

B1: caspase 8 catalytic domain (C8 CD) (other)
chain: EFSKERSSSLEGSPDEFSNGEELCGVMTISDSPREQDSESQTLDKVYQMKSKPRGYCLIINNHNFAKAREKVPKLHSIRDRNGTHLDAGALTTTFEELHFEIKPHDDCTVEQIYEILKIYQLMDHSNMDCFICCILSHGDKGIIYGTDGQEAPIYELTSQFTGLKCPSLAGKPKVFFIQACQGDNYQKGIPVETDSEEQPYLEMDLSSPQTRYIPDEADFLLGMATVNNCVSYRNPAEGTWYIQSLCQSLRERCPRGDDILTILTEVNYEVSNKDDKKNMGKQMPQPTFTLRKKLVFPSD
notes: range 180-480; also called caspase catalytic domain
  binding result: no binding
